Results reported in US20180022781A1 (INSERM INSTITUT NATIONAL DE LA SANTE ET DE LA RECHERCHE …, published 2018).

Target: T1, full-length Ty1 IN (IN1-635) fused to Gal4 activating domain (Saccharomyces cerevisiae, UniProt P0C2I7 583-1217)
T1 construct: the residue numbers of the constructs agree with it
T1 sequence: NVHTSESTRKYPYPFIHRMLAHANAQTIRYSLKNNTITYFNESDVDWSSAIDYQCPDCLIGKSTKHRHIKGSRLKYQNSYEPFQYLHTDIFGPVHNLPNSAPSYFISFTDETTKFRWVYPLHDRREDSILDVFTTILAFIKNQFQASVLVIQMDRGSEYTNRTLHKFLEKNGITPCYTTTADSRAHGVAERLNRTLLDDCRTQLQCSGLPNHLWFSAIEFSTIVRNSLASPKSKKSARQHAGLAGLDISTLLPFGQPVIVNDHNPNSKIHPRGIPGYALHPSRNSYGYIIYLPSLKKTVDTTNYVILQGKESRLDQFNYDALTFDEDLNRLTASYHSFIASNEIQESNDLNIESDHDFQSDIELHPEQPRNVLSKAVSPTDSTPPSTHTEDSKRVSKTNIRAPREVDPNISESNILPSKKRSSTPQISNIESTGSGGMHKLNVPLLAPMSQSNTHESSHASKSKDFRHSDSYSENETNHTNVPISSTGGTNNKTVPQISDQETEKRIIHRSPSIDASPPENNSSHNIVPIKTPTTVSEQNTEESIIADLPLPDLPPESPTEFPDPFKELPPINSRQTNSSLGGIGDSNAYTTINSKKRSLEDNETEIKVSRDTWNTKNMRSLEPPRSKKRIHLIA
Assay: yeast two-hybrid
Source text: (A) Two-hybrid interaction between different domains of Ty1-IN and AC40 or AC40sp. Left, Ty1 structure. Two open reading frames, GAG and POL (historically TYA and TYB), are flanked by two LTRs (black triangles). Protease (PR), integrase (IN), reverse transcriptase-RNAse H (RT/RH). The left-right arrow indicates Ty1 sequences recovered in the two-hybrid screen (2-HS) with AC40 as bait (coordinates 2706-4342 in Ty1). Ty1-IN regions fused to Gal4 activating domain (GAD) are depicted. Right, serial 10-fold dilutions of liquid cultures of cells expressing AC40 or AC40sp fused to Gal4 binding domain (GBD) and the various GAD-IN proteins were plated onto non-selective (Control) or selective (Interaction) media to detect interactions. (B) Co-immunoprecipitation of AC40 and IN-Strep. A 6×HA epitope was inserted at the end of the endogenous RPC40 gene (AC40-HA) and IN was fused with streptavidine (IN-Strep) and expressed from a galactose inducible promoter. Immunoprecipitation of protein extracts was performed with anti-HA magnetic beads coupled to IgG. […] (C) Co-immunoprecipitation of AC40 and IN expressed from a galactose inducible functional Ty1 element. Immunoprecipitation conditions are as in FIG. 3B.

B1: S. pombe AC40 (AC40sp) fused to Gal4 binding domain (GBD-AC40sp) (other, UniProt P04386 1-147, looked up)
chain: MKLLSSIEQACDICRLKKLKCSKEKPKCAKCLKNNWECRYSPKTKRSPLTRAHLTEVESRLERLEQLFLLIFPREDLDMILKMDSLQDIKALLTGLFVQDNVNKDAVTDRLASVETDMPLTLRQHRISATSSSEESSNKGQRQLTVSMAAVDRSRTEISVLSDRVTDVGSVDFPGYYFDEDNIWDLDKFKKNLKVSITSLDQETMVFEISGIDASIANAFRRILIAEIPTLAFEFVYIINNTSIIQDEVLSHRIGLVPISADPDMFKWFQHPLPGQEATHTDYDTVVFSLNKKCEFNKNAATDEKDPKRLYVNSEVYSGDLIWKPQGRQEERFADNPIRVVNPDIVVAKLRPGQEIDLEAHAILGIGQDHAKFSPVATASYRLLPTIHILSPIEGEDAVKFQKCFPKGVIELEEGPDGKKQARVADVRKDTVSRECLRHPEFADKVQLGRVRDHYLFSVESTGIMKPDVLFIKSIAVLKSKCLAVKSSLQNISSD
B1: no binding.
